According to article PMC12416549 (2024):
Substitutions are numbered along the chain they refer to. Names may count otherwise.

T1: TNFR1 (Homo sapiens, UniProt P19438)
T1 chain: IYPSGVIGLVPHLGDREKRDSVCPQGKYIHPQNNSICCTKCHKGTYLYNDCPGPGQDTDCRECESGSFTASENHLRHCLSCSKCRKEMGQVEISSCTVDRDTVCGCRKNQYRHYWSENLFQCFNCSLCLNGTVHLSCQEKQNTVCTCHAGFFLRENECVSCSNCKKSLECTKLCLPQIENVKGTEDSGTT

B1: W70V (designed binder)
chain: MTLQELLREEALRRAEAEAFRYALELLAEKFPEQKEYLLDLAEEIESQIRSLSGVDVEDVRKFLDKEWAVVKELLAEHPAELAEVEAARAARLAELRAEVEAKVAA
B2: L93D (designed binder)
chain: B1 chain with V70W, L93D
B3: R14Y (designed binder)
chain: B1 chain with R14Y, V70W
B4: E33V (designed binder)
chain: B1 chain with E33V, V70W
B5: I49G (designed binder)
chain: B1 chain with I49G, V70W
B6: W68M (designed binder)
chain: B1 chain with W68M, V70W
B7: L41F (designed binder)
chain: B1 chain with L41F, V70W
B8: L52K (designed binder)
chain: B1 chain with L52K, V70W
B9: L7R (designed binder)
chain: B1 chain with L7R, V70W
B10: P32Y (designed binder)
chain: B1 chain with P32Y, V70W
B11: A15Q (designed binder)
chain: B1 chain with A15Q, V70W
B12: T2I (designed binder)
chain: B1 chain with T2I, V70W
B13: R21G (designed binder)
chain: B1 chain with R21G, V70W
B14: A19S (designed binder)
chain: B1 chain with A19S, V70W
B15: E5A (designed binder)
chain: B1 chain with E5A, V70W
B16: L93W (designed binder)
chain: B1 chain with V70W, L93W
B17: L93Q (designed binder)
chain: B1 chain with V70W, L93Q
B18: E101A (designed binder)
chain: B1 chain with V70W, E101A
B19: E29F (designed binder)
chain: B1 chain with E29F, V70W
B20: A11N (designed binder)
chain: B1 chain with A11N, V70W
B21: L26V (designed binder)
chain: B1 chain with L26V, V70W
B22: D59P (designed binder)
chain: B1 chain with D59P, V70W
B23: Q48M (designed binder)
chain: B1 chain with Q48M, V70W
B24: E44W (designed binder)
chain: B1 chain with E44W, V70W
B25: E9Q (designed binder)
chain: B1 chain with E9Q, V70W
B26: K30P (designed binder)
chain: B1 chain with K30P, V70W
B27: Q48P (designed binder)
chain: B1 chain with Q48P, V70W
B28: K62H (designed binder)
chain: B1 chain with K62H, V70W
B29: D59K (designed binder)
chain: B1 chain with D59K, V70W
B30: P32C (designed binder)
chain: B1 chain with P32C, V70W
B31: Q34N (designed binder)
chain: B1 chain with Q34N, V70W
B32: K35M (designed binder)
chain: B1 chain with K35M, V70W
B33: Q34R (designed binder)
chain: B1 chain with Q34R, V70W
B34: A102Q (designed binder)
chain: B1 chain with V70W, A102Q
B35: E73W (designed binder)
chain: B1 chain with V70W, E73W
B36: E18F (designed binder)
chain: B1 chain with E18F, V70W
B37: R61L (designed binder)
chain: B1 chain with R61L, V70W
B38: S47F (designed binder)
chain: B1 chain with S47F, V70W
B39: K72A (designed binder)
chain: B1 chain with V70W, K72A
B40: E81P (designed binder)
chain: B1 chain with V70W, E81P
B41: R8H (designed binder)
chain: B1 chain with R8H, V70W
B42: P32K (designed binder)
chain: B1 chain with P32K, V70W
B43: A98Q (designed binder)
chain: B1 chain with V70W, A98Q
B44: L12R (designed binder)
chain: B1 chain with L12R, V70W
B45: P79G (designed binder)
chain: B1 chain with V70W, P79G
B46: E73R (designed binder)
chain: B1 chain with V70W, E73R
B47: V85G (designed binder)
chain: B1 chain with V70W, V85G
B48: M1N (designed binder)
chain: B1 chain with M1N, V70W
B49: K72T (designed binder)
chain: B1 chain with V70W, K72T
B50: L24K (designed binder)
chain: B1 chain with L24K, V70W
B51: L26E (designed binder)
chain: B1 chain with L26E, V70W
B52: R21H (designed binder)
chain: B1 chain with R21H, V70W
B53: W68T (designed binder)
chain: B1 chain with W68T, V70W
B54: R13P (designed binder)
chain: B1 chain with R13P, V70W
B55: L64Y (designed binder)
chain: B1 chain with L64Y, V70W

Target: T1, TNFR1
Experiment: yeast display SC50
B1 was tested, and the “apparent Kd (screen)” value was 20200 pM.
For B2, the “apparent Kd (screen)” value was 869 pM.
With B3 the “apparent Kd (screen)” value was 490 pM.
With B4 the “apparent Kd (screen)” value was 718 pM.
In the case of B5, the “apparent Kd (screen)” value is reported as 1050 pM.
B6 was tested, and the “apparent Kd (screen)” value was 539 pM.
B7 was tested, and the “apparent Kd (screen)” value was 790 pM.
In the case of B8, the “apparent Kd (screen)” value is reported as 1050 pM.
For B9, the “apparent Kd (screen)” value was 8560 pM.
In the case of B10, the “apparent Kd (screen)” value is reported as 539 pM.
In the case of B11, the “apparent Kd (screen)” value is reported as 718 pM.
In the case of B12, the “apparent Kd (screen)” value is reported as 653 pM.
B13 was tested, and the “apparent Kd (screen)” value was 869 pM.
For B14, the “apparent Kd (screen)” value was 653 pM.
For B15, the “apparent Kd (screen)” value was 790 pM.
In the case of B16, the “apparent Kd (screen)” value is reported as 539 pM.
In the case of B17, the “apparent Kd (screen)” value is reported as 539 pM.
B18 was tested, and the “apparent Kd (screen)” value was 790 pM.
With B19 the “apparent Kd (screen)” value was 653 pM.
For B20, the “apparent Kd (screen)” value was 405 pM.
B21 was tested, and the “apparent Kd (screen)” value was 790 pM.
For B22, the “apparent Kd (screen)” value was 252 pM.
B23 was tested, and the “apparent Kd (screen)” value was 1160 pM.
With B24 the “apparent Kd (screen)” value was 539 pM.
With B25 the “apparent Kd (screen)” value was 490 pM.
With B26 the “apparent Kd (screen)” value was 653 pM.
B27 was tested, and the “apparent Kd (screen)” value was 3990 pM.
B28 was tested, and the “apparent Kd (screen)” value was 718 pM.
For B29, the “apparent Kd (screen)” value was 869 pM.
B30 was tested, and the “apparent Kd (screen)” value was 539 pM.
For B31, the “apparent Kd (screen)” value was 539 pM.
B32 was tested, and the “apparent Kd (screen)” value was 446 pM.
In the case of B33, the “apparent Kd (screen)” value is reported as 718 pM.
With B34 the “apparent Kd (screen)” value was 539 pM.
B35 was tested, and the “apparent Kd (screen)” value was 653 pM.
With B36 the “apparent Kd (screen)” value was 539 pM.
B37 was tested, and the “apparent Kd (screen)” value was 539 pM.
With B38 the “apparent Kd (screen)” value was 490 pM.
In the case of B39, the “apparent Kd (screen)” value is reported as 869 pM.
B40 was tested, and the “apparent Kd (screen)” value was 718 pM.
B41 was tested, and the “apparent Kd (screen)” value was 869 pM.
For B42, the “apparent Kd (screen)” value was 653 pM.
With B43 the “apparent Kd (screen)” value was 653 pM.
For B44, the “apparent Kd (screen)” value was 490 pM.
In the case of B45, the “apparent Kd (screen)” value is reported as 956 pM.
With B46 the “apparent Kd (screen)” value was 539 pM.
B47 was tested, and the “apparent Kd (screen)” value was 718 pM.
For B48, the “apparent Kd (screen)” value was 490 pM.
In the case of B49, the “apparent Kd (screen)” value is reported as 718 pM.
With B50 the “apparent Kd (screen)” value was 11400 pM.
In the case of B51, the “apparent Kd (screen)” value is reported as 790 pM.
With B52 the “apparent Kd (screen)” value was 490 pM.
With B53 the “apparent Kd (screen)” value was 1540 pM.
For B54, the “apparent Kd (screen)” value was 11400 pM.
In the case of B55, the “apparent Kd (screen)” value is reported as 490 pM.
